Assay results taken from paper PMC9918737.

Legend:
[1] = target: ubH2B mono-nucleosome (H2B mono-ubiquitinated at lysine 120) (UniProt P0C0S8)
[2] = target: unmodified H2B mono-nucleosome (UniProt P0C0S8)
[3] = target: ubH2B mono-nucleosome (H2B mono-ubiquitinated at lysine 120) (UniProt P0C0S8); assay: single-molecule magnetic tweezers (force-jump); 409-bp nucleosome tethered between coverslip and bead, 83 nM FACT in the flow cell, force jumps between 0.1 pN and 11 pN (H2B-nucleosome) or 6 pN (ubH2B-nucleosome), Kd from the ratio of free to FACT-bound states, 25 °C

rupture force of the inner DNA wrap of ubH2B-nucleosome in the presence of FACT (magnetic tweezers) [1]: 20 pN
rupture force of the outer DNA wrap of ubH2B-nucleosome in the presence of FACT (magnetic tweezers) [1]: 10 pN
tension at which the H2B-nucleosome is completely disrupted in the presence of FACT (magnetic tweezers, repeated stretching) [2]: < 10 pN
Kd [3]: 8 nM
Substance: recombinant FACT complex (Flag-SPT16 and His6-SSRP1) (from UniProt Q9Y5B9 1-1047; Q08945 1-709)
